# Results reported in US20250163168A1, “NOVEL ANTIBODIES AND ANTIBODY CONJUGATES FOR THE TREATMENT OF METABOLIC DISORDERS” (PFIZER INC., priority 2023, published 2025).
# Key:
# Human GIPR ECD = target: T1, Human GIPR ECD (Homo sapiens, UniProt P48546); assay: Kinetic evaluation of anti-GIPR antibody by surface plasmon resonance (SPR); set-up: made in house; conditions: SPR at 37° C., captured antibody, 1:1 binding model
# T1 sequence (P48546 with tags, fused parts or gaps): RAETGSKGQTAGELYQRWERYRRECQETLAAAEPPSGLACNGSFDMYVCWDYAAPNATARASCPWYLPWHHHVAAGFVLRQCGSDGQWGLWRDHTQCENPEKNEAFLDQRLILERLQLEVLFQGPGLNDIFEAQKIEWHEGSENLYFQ
# Description: Human GIPR ECD (amino acid sequence of SEQ ID NO: 33) was prepared. An anti-human Fc sensor chip was prepared by amine coupling of anti-human IgG antibody (catalog number BR-1008-39, Cytiva) to all flow cells of a carboxymethylated dextran coated sensor chip (CM5) (catalog number BR100530, Cytiva) according to the manufacturer's protocols. The flow cells were activated by injecting a 1:1 mixture of 400 mM 1-Ethyl-3-(3-dimethylaminopropyl) carbodiimide hydrochloride (EDC) and 100 mM N-hydroxysuccinimide (NHS) for 7 minutes at a flow rate of 10 μL/minute. Anti-human IgG antibody was diluted to ˜12.5 μg/mL in 10 mM sodium acetate pH 5.0 and injected over all flow cells for 7 minutes at 10 μL/minute. All flow cells were blocked with 1M ethanolamine-HCl (ETH) for 7 minutes at 10 μL/minute. Final immobilization levels of the capture antibody were approximately 12,000 resonance units (RU). […]
# Flow cell 1 was used as a reference surface. […] Rate constants and affinities were determined by fitting the data to a 1:1 binding model in BIAcore™ Insight Evaluation software version 3.0.12 (GE Healthcare).
# After antibody capture, dilutions of the human GIPR ECD proteins were flowed over the sensor chip surface and the association rate constant (ka), dissociation rate constant (kd), and KD values were determined for binding to human GIPR ECD (Table 5).
# [1] = tested on: diet induced obese (DIO) male hGIPR mice; assay: Oral glucose tolerance test (OGTT) in DIO male hGIPR mice; type: in vivo, mouse; conditions: single dose 1 mpk, versus IgG (FIG. 5B)
# Source text: To test the efficacy of anti-GIPR antibodies GIPR-0107 and GIPR-2767 in vivo, humanized mice expressing hGIPR were made in which human GIPR is expressed under the control of the endogenous mouse Gipr locus while knocking out the mouse Gipr gene. Human GIPR cDNA-SV40 pA was inserted in-frame with mouse Gipr at the end of exon 2 (1st coding exon) utilizing CRISPR/Cas9 technology. Insertion of human GIPR cDNA and disruption of mouse Gipr was validated by genotyping, and human GIPR mRNA expression was confirmed by quantitative PCR. These hGIPR mice were used to measure the in vivo efficacy of GIPR-0107 and GIPR-2767 using oral glucose tolerance test (OGTT) and weight gain prevention studies.
# Mice were singly housed, maintained on a 12-hour light/12-hour dark cycle, and received food and wr ad libitum. Prior to the start of the study, mice were weighed and randomized into groups based on body weight. […] Before dosing, mice were bled vial tail snip to obtain a basal blood glucose reading by AlphaTRAK handheld glucometer, and at time 0, mice were dosed with 1.5 g/kg glucose by oral gavage. Blood glucose was measured by glucometer at 15 min, 30 min, 60 min, and 120 min after glucose administration. […] All residuals were evaluated for meeting the normality assumption with the Shapiro-Wilks Test and Q-Q Plots and the sphericity and homoscedasticity assumption by the residual plots and Bartlett's test. […]
substance,measurement,setting,value
2G10: fully human monoclonal anti-GIPR antagonist antibody portion of AMG 133 (maridebart cafraglutide); benchmark antibody [reference compound],Kd,Human GIPR ECD,19.2 nM
same,baseline glucose adjusted AUC in OGTT,[1],not significantly different than IgG
